# Key:
# [1] = system: Arabidopsis thaliana PPC1 (AtPPC1, C3 PEPC); assay: malate dehydrogenase coupled PEPC enzymatic assay, Arabidopsis C3 PPC1 and engineered variants; type: biochemical; details: 25° C, HEPES pH7.5
# Description: (§1) For both Arabidopsis C3 PPC1 (AtPPC1) and maize C4 PPC1 (ZmPPC1), the entire coding sequence for each was cloned into pET22b, which contains an amino-terminal 6×-HIS tag for protein purification, and expression was driven by the T7 promoter and lac operon. Relevant mutations were introduced by the Stratagene QuikChange mutagenesis kit using PCR amplification. Both wild type and mutant cDNA constructs were sequenced entirely following cloning into pet22b. Proteins were produced by growing transformed E. coli (BL21 CodonPlus) in autoinduction medium at 18° C. for 16 hours. Proteins were isolated by sonication of bacterial cells followed by passage over a nickel sepharose affinity column, elution with imidazole and separation on a GE SUPERDEX HILOAD 200 PG 16/60 all using an AKTA FPLC.
# (§2) Enzyme analysis was conducted in vitro using protein that was generated by expression in E. coli using the pET22b vector. For expression, pET22b constructs were transformed into E. coli BL21-DE3 codon plus RIL cells and grown at 37° C. in autoinduction media until reaching an OD=1 after which these were transferred to 18° C. for 18 hours. Samples were collected and lysed by sonication. Protein was purified by passage through a His-trap nickel affinity column on an Akta FPLC and then eluted with 400 mM imidazole. Partially purified protein was then separated on an FPLC equipped with a HiPrep S200 size exclusion column (16/60) after which collected sample was concentrated by centrifugation to a final concentration of 4 mg/ml in 50% glycerol. Samples were stored at −20° C.
# (§3) For enzymatic assays, a malate dehydrogenase coupled reaction was conducted with a range of substrate concentrations (0-7.5 mM phosphoenolpyruvate pyruvate) and a range of concentrations of allosteric inhibitor (0-50 mM malate). Assays were monitored using a Victor2 microplate reader at 25° C. Reactions consisted of […] PPC enzyme variants, 50 mM HEPES pH7.5, 10 mM MgCl2, 10 mM KHCO3 (carbonate substrate), 0.2 mM NADH, and 10 units/ml of malate dehydrogenase. Reaction time was 15 minutes and samples were measured on an ˜40 second interval. For measurement, which monitors loss of NADH, excitation wavelength was 340 nM and emission wavelength was 460 nM. From these assays, the enzyme kinetics of Tables 4-1 and 4-2 were determined for each enzyme variant.
# [2] = system: Zea mays PPC1 (ZmPPC1, C4 PEPC); assay: malate dehydrogenase coupled PEPC enzymatic assay, maize C4 PPC1 and engineered variants; type: biochemical; details: for Km: 0-7.5 mM phosphoenolpyruvate, read-out: Km PEP; for Km / Vmax: 25° C, HEPES pH7.5; for increases in catalytic efficiency relative to wt ZmPPC1: Kcat/Km; for activity of C4 PEPC: substitution introduced into maize C4 PEPC (ZmPPC1)
# Description: as §1, §2
# as §3, with “nM.” for “nM. From these assays, the enzyme kinetics of Tables 4-1 and 4-2 were determined for each enzyme variant.”
Molecule,"Km ([1]; 0-7.5 mM phosphoenolpyruvate, read-out: Km PEP)",Vmax [1],effects of the allosteric inhibitor malate relative to wt ZmPPC1 [2],Km [2],Vmax [2],increases in catalytic efficiency relative to wt ZmPPC1 [2],activity of C4 PEPC [2],effect of malate on enzyme ([2]; at 50 mM malate)
"AtPPC1 A651V: engineered Arabidopsis thaliana PPC1 with A651V substitution (alr-108), SEQ ID NO:10 (protein) MANRKLEKMASIDVHLRQLVPGKVSEDDKLVEYDALLLDRFLDILQDLHGEDLRETVQELYEHSAEYEGKHEPKKLEELGSVLTSLDPGDSIVIAKAFSHMLNLANLAEEVQIAYRRRIKKLKKGDFVDESSATTESDLEETFKKLVGDLNKSPEEIFDALKNQTVDLVLTAHPTQSVRRSLLQKHGRIRDCLAQLYAKDITPDDKQELDEALQREIQAAFRTDEIKRTPPTPQDEMRAGMSYFHETIWKGVPKFLRRVDTALKNIGIEERVPYNAPLIQFSSWMGGDRDGNPRVTPEVTRDVCLLARMMAATMYFNQIEDLMFEMSMWRCNDELRARADEVHANSRKDAAKHYIEFWKSIPTTEPYRVILGDVRDKLYHTRERAHQLLSNGHSDVPVEATFINLEQFLEPLELCYRSLCSCGDRPIADGSLLDFLRQVSTFGLSLVRLDIRQESDRHTDVLDAITTHLDIGSYREWSEERRQEWLLSELSGKRPLFGSDLPKTEEIADVLDTFHVIAELPADSFGAYIISMATAPSDVLAVELLQRECRVKQPLRVVPLFEKLADLEAAPAAVARLFSVDWYKNRINGKQEVMIGYSDSGKDAGRLSAAWQLYKAQEELVKVAKEYGVKLTMFHGRGGTVGRGGGPTHLVILSQPPDTINGSLRVTVQGEVIEQSFGEEHLCFRTLQRFTAATLEHGMRPPISPKPEWRALLDEMAVVATEEYRSVVFQEPRFVEYFRLATPELEYGRMNIGSRPSKRKPSGGIESLRAIPWIFAWTQTRFHLPVWLGFGSAIRHVIEKDVRNLHMLQDMYQHWPFFRVTIDLIEMVFAKGDPGIAALYDKLLVSEELWPFGEKLRANFEETKKLILQTAGHKDLLEGDPYLKQRLRLRDSYITTLNVCQAYTLKRIRDPSYHVTLRPHISKEIAESSKPAKELIELNPTSEYAPGLEDTLILTMKGIAAGLQNTG",956 ± 40 µM,15.776 ± 0.25 units/mg,–,–,–,–,–,–
ZmPPC1 G678S: engineered Zea mays PPC1 with G678S substitution (G682S in SEQ ID NO:15) (protein) MASTKAPGPGEKHHSIDAQLRQLVPGKVSEDDKLIEYDALLVDRFLNILQDLHGPSLREFVQECYEVSADYEGKGDTTKLGELGAKLTGLAPADAILVASSILHMLNLANLAEEVQIAHRRRNSKLKKGGFADEGSATTESDIEETLKRLVSEVGKSPEEVFEALKNQTVDLVFTAHPTQSARRSLLQKNARIRNCLTQLNAKDITDDDKQELDEALQREIQAAFRTDEIRRAQPTPQDEMRYGMSYIHETVWKGVPKFLRRVDTALKNIGINERLPYNVSLIRFSSWMGGDRDGNPRVTPEVTRDVCLLARMMAANLYIDQIEELMFELSMWRCNDELRVRAEELHSSSGSKVTKYYIEFWKQIPPNEPYRVILGHVRDKLYNTRERARHLLASGVSEISAESSFTSIEEFLEPLELCYKSLCDCGDKAIADGSLLDLLRQVFTFGLSLVKLDIRQESERHTDVIDAITTHLGIGSYREWPEDKRQEWLLSELRGKRPLLPPDLPQTDEIADVIGAFHVLAELPPDSFGPYIISMATAPSDVLAVELLQRECGVRQPLPVVPLFERLADLQSAPASVERLFSVDWYMDRIKGKQQVMVGYSDSGKDAGRLSAAWQLYRAQEEMAQVAKRYGVKLTLFHGRGGTVGRGGGPTHLAILSQPPDTINGSIRVTVQGEVIEFCFSEEHLCFQTLQRFTAATLEHGMHPPVSPKPEWRKLMDEMAVVATEEYRSVVVKEARFVEYFRSATPETEYGRMNIGSRPAKRRPGGGITTLRAIPWIFSWTQTRFHLPVWLGVGAAFKFAIDKDVRNFQVLKEMYNEWPFFRVTLDLLEMVFAKGDPGIAGLYDELLVAEELKPFGKQLRDKYVETQQLLLQIAGHKDILEGDPFLKQGLVLRNPYITTLNVFQAYTLKRIRDPNFKVTPQPPLSKEFADENKPAGLVKLNPASEYPPGLEDTLILTMKGIAAGMQNTG,–,–,greatly reduce,2660 ± 333 µM,17.74 ± 1.04 units/mg,~200%,increased activity,–
ZmPPC1 T7781: engineered Zea mays PPC1 with T778I substitution (T782I in SEQ ID NO:15) (protein) MASTKAPGPGEKHHSIDAQLRQLVPGKVSEDDKLIEYDALLVDRFLNILQDLHGPSLREFVQECYEVSADYEGKGDTTKLGELGAKLTGLAPADAILVASSILHMLNLANLAEEVQIAHRRRNSKLKKGGFADEGSATTESDIEETLKRLVSEVGKSPEEVFEALKNQTVDLVFTAHPTQSARRSLLQKNARIRNCLTQLNAKDITDDDKQELDEALQREIQAAFRTDEIRRAQPTPQDEMRYGMSYIHETVWKGVPKFLRRVDTALKNIGINERLPYNVSLIRFSSWMGGDRDGNPRVTPEVTRDVCLLARMMAANLYIDQIEELMFELSMWRCNDELRVRAEELHSSSGSKVTKYYIEFWKQIPPNEPYRVILGHVRDKLYNTRERARHLLASGVSEISAESSFTSIEEFLEPLELCYKSLCDCGDKAIADGSLLDLLRQVFTFGLSLVKLDIRQESERHTDVIDAITTHLGIGSYREWPEDKRQEWLLSELRGKRPLLPPDLPQTDEIADVIGAFHVLAELPPDSFGPYIISMATAPSDVLAVELLQRECGVRQPLPVVPLFERLADLQSAPASVERLFSVDWYMDRIKGKQQVMVGYSDSGKDAGRLSAAWQLYRAQEEMAQVAKRYGVKLTLFHGRGGTVGRGGGPTHLAILSQPPDTINGSIRVTVQGEVIEFCFGEEHLCFQTLQRFTAATLEHGMHPPVSPKPEWRKLMDEMAVVATEEYRSVVVKEARFVEYFRSATPETEYGRMNIGSRPAKRRPGGGITTLRAIPWIFSWIQTRFHLPVWLGVGAAFKFAIDKDVRNFQVLKEMYNEWPFFRVTLDLLEMVFAKGDPGIAGLYDELLVAEELKPFGKQLRDKYVETQQLLLQIAGHKDILEGDPFLKQGLVLRNPYITTLNVFQAYTLKRIRDPNFKVTPQPPLSKEFADENKPAGLVKLNPASEYPPGLEDTLILTMKGIAAGMQNTG,–,–,greatly reduce,1190 ± 104 µM,14.05 ± 0.44 units/mg,~300%,increased activity,–
"ZmPPC1 wild type: wild type Zea mays PPC1, C4 PEPC, SEQ ID NO:15 (protein) MASTKAPGPGEKHHSIDAQLRQLVPGKVSEDDKLIEYDALLVDRFLNILQDLHGPSLREFVQECYEVSADYEGKGDTTKLGELGAKLTGLAPADAILVASSILHMLNLANLAEEVQIAHRRRNSKLKKGGFADEGSATTESDIEETLKRLVSEVGKSPEEVFEALKNQTVDLVFTAHPTQSARRSLLQKNARIRNCLTQLNAKDITDDDKQELDEALQREIQAAFRTDEIRRAQPTPQDEMRYGMSYIHETVWKGVPKFLRRVDTALKNIGINERLPYNVSLIRFSSWMGGDRDGNPRVTPEVTRDVCLLARMMAANLYIDQIEELMFELSMWRCNDELRVRAEELHSSSGSKVTKYYIEFWKQIPPNEPYRVILGHVRDKLYNTRERARHLLASGVSEISAESSFTSIEEFLEPLELCYKSLCDCGDKAIADGSLLDLLRQVFTFGLSLVKLDIRQESERHTDVIDAITTHLGIGSYREWPEDKRQEWLLSELRGKRPLLPPDLPQTDEIADVIGAFHVLAELPPDSFGPYIISMATAPSDVLAVELLQRECGVRQPLPVVPLFERLADLQSAPASVERLFSVDWYMDRIKGKQQVMVGYSDSGKDAGRLSAAWQLYRAQEEMAQVAKRYGVKLTLFHGRGGTVGRGGGPTHLAILSQPPDTINGSIRVTVQGEVIEFCFGEEHLCFQTLQRFTAATLEHGMHPPVSPKPEWRKLMDEMAVVATEEYRSVVVKEARFVEYFRSATPETEYGRMNIGSRPAKRRPGGGITTLRAIPWIFSWTQTRFHLPVWLGVGAAFKFAIDKDVRNFQVLKEMYNEWPFFRVTLDLLEMVFAKGDPGIAGLYDELLVAEELKPFGKQLRDKYVETQQLLLQIAGHKDILEGDPFLKQGLVLRNPYITTLNVFQAYTLKRIRDPNFKVTPQPPLSKEFADENKPAGLVKLNPASEYPPGLEDTLILTMKGIAAGMQNTG",–,–,–,4620 ± 406 µM,17.56 ± 2.35 units/mg,–,–,completely inhibited

# — patent US12168773B2, “Engineered phosphoenolpyruvate carboxylase enzymes” (The Regents of the University of California, priority 2019, dated 2024)
